Experimental data reported in PMC9293779, “Elucidation of binding preferences of YEATS domains to site-specific acetylated nucleosome core particles” (The Journal of Biological Chemistry, 2022).
Ends that are not written are not given here.

T1: GST-fused AF9-YEATS domain (peptide array) (human, UniProt P42568 1-138)
T1 construct: GST follows the N-terminal polyhistidine tag; source: purified (HisTrap HP, Superdex 200); not shown: GST, N-terminal, kept
T1 sequence (looked up): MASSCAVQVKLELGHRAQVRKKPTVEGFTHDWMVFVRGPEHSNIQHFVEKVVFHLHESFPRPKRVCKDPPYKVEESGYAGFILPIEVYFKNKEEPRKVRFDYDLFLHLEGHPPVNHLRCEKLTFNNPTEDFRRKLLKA

T2: GST-fused ENL-YEATS domain (peptide array) (human, UniProt Q03111 1-138)
T2 construct: GST follows the N-terminal polyhistidine tag; source: purified (HisTrap HP, Superdex 200); not shown: GST, N-terminal, kept
T2 sequence (looked up): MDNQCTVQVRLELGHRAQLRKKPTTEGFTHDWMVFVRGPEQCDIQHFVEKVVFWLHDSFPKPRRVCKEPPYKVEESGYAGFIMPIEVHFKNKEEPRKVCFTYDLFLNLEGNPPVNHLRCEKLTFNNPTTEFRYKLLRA

T3: AF9-YEATS domain (residues 1–138) for X-ray analysis and ITC (human, UniProt P42568 1-138)
T3 construct: AF9 YEATS domain, human, residues 1–138; cloned in the pCR2.1 vector encoding GST and the polyhistidine tag; source: purified (HisTrap HP, Superdex 200)
T3 sequence (looked up): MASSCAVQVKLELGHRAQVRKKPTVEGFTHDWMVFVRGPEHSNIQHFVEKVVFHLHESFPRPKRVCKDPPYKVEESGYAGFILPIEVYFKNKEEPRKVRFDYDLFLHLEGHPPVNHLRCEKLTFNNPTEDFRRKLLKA


Tests used:
Conditions in all cases: both partners purified
[1] = target: T1, GST-fused AF9-YEATS domain (peptide …); assay: peptide or protein array; MODified Histone Peptide Array (Active Motif); 10 μM GST-fused YEATS domain, 4 °C overnight; 50 mM Tris-HCl pH 7.6, 250 mM NaCl, 0.1% NP-40, 10% glycerol; detected with anti-GST
[2] = target: T2, GST-fused ENL-YEATS domain (peptide …); assay: as above
[3] = target: T3, AF9-YEATS domain (residues 1–138) for …; assay: ITC; protein (100 μM) in the cell, peptide (1 mM) in the syringe; 15 °C; 20 mM Tris-HCl pH 7.6, 500 mM NaCl; single binding site model
[4] = target: T3, AF9-YEATS domain (residues 1–138) for …; assay: crystal structure; sitting-drop vapor diffusion at 20 °C; AF9-YEATS with diacetylated H4 peptide; space group P1, two AF9-YEATS molecules in the asymmetric unit

| Binder | binding result [1] | binding result [2] | Kd [3] [µM] | binding result [4] |
| --- | --- | --- | --- | --- |
| SGRGKGGKGLGKGGAKRHR (peptide, UniProt P62805 2-20, looked up, acetyl-lysine at K5, K8, K12 and K16, histone H4, residues 1–19; source: bought: Active Motif MODified Histone Peptide Array) [H4 (1–19) tail peptide tetra-acetylated at K5/K8/K12/K16 (MODified Histone Peptide Array)] | binds | binds |  |  |
| ARTK(Ac)QTARK(Ac)STGGKAPRKQ (peptide, UniProt P68431 2-20, looked up, histone H3, residues 1–19) [K4/K9-diacetylated H3 (1–19) peptide] |  |  | 5.8 |  |
| SGRGK(Ac)GGK(Ac)GLGK (peptide, UniProt P62805 2-13, looked up, histone H4, residues 1–12; also called H4K5ac/K8ac peptide; K5/K8-diacetylated H4 peptide) [H4 (1–12) K5ac/K8ac peptide] |  |  |  | binds |
| ARTKQTARKSTGGKAPRKQ (peptide, UniProt P68431 2-20, looked up, acetyl-lysine at K9 and K14, histone H3, residues 1–19) [K9/K14-diacetylated H3 (1–19) peptide] |  |  | 8.5 |  |
| GKGGK(Ac)GLGK(Ac)GGAK (peptide, UniProt P62805 5-17, looked up, histone H4, residues 4–16; also called H4K8ac/K12ac peptide; K8/K12-diacetylated H4 peptide) [H4 (4–16) K8ac/K12ac peptide] |  |  |  | binds |
| SGRGKGGKGLGKGGAKRHR (peptide, UniProt P62805 2-20, looked up, acetyl-lysine at K5 and K8, histone H4, residues 1–19; source: bought: Active Motif MODified Histone Peptide Array) [H4 (1–19) tail peptide diacetylated at K5/K8 (MODified Histone Peptide Array)] | binds | binds |  |  |
